Test results: patent US20250340635A1 (HEFEI TG IMMUNOPHARMA, published 2025)

T1: human MICA-His fusion protein (human, UniProt Q29983 24-307)
T1 construct: extracellular domain; also called MICA extracellular region His tag fusion protein; not shown: His tag
T1 sequence (looked up): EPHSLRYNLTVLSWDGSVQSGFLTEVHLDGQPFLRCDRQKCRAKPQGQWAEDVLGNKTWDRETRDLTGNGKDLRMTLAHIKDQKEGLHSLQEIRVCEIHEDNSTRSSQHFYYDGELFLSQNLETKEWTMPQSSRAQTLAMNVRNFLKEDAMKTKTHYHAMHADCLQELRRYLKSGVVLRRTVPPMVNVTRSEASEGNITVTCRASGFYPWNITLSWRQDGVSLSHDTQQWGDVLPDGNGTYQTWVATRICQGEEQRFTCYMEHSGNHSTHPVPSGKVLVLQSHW


Columns and labels:
[1] = biological target: T2, cynomolgus monkey-His fusion protein (cynomolgus monkey, UniProt Q95JB9 22-257); assay: not described at this place ("Validation has shown"); Jeru4602 was tested by ELISA on coated cynomolgus NKp46-His in Example 7
T2 construct: extracellular domain; also called cynomolgus monkey NKp46; monkey NKp46; not shown: His tag
Description: The binding characteristics of the humanized 10D10 antibody prepared in Example 6 was detected using the ELISA assay. The NKp46 extracellular region His tag fusion protein (NKp46-His) was coated into a 96-well plate. The signal intensity after antibody addition was used to determine the binding characteristics of the antibody to NKp46. The specific steps were as follows:
The human NKp46-His fusion protein and cynomolgus monkey-His fusion protein (for specific sources, see Example 2) were diluted to 1 μg/mL with PBS buffer, added to a 96-well plate at 100 μL/well and left overnight at 4° C. The PBS buffer solution was removed from the 96-well plate. The plate was washed 6 times with PBST (pH 7.2, PBS containing 0.1% Tween 20) buffer solution. PBS/10% BSA was added at 200 μL/well and incubated at 37° C. for 2 hours for blocking. The blocking solution was removed. The plate was washed 6 times with PBST. […] The absorbance at […] was read with a microplate reader.

[2] = biological target: T1, human MICA-His fusion protein; assay: ELISA, MICA-His coated, anti-human HRP
[3] = biological target: T3, human NKp46-His fusion protein (human, UniProt O76036 22-258); assay: ELISA, NKp46-His coated, anti-human HRP
T3 construct: Bought from Acro; also called NKp46 extracellular region His tag fusion protein; not shown: His tag
T3 sequence (O76036 22-258 Q82K): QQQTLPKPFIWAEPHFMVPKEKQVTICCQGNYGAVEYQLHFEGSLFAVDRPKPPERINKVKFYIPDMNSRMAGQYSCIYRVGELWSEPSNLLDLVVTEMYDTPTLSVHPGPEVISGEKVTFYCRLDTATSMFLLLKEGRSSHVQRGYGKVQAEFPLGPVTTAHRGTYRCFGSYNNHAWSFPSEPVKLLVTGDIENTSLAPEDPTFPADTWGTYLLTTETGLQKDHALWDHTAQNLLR

T2 sequence (Q95JB9 22-257): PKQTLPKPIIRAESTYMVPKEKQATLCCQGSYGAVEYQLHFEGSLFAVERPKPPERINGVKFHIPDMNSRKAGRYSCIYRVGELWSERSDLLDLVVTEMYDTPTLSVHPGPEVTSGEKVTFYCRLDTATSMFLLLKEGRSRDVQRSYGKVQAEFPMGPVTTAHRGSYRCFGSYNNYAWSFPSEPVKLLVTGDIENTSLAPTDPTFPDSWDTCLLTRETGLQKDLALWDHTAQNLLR

binding result [1] | binding result [2] | binding result [3] | Binder
no binding |  |  | Jeru4602 (antibody, human IgG1, kappa, L234A L235A, V domains shown, also called control antibody 2; NKp46 antibody disclosed in U.S. Ser. No. 10/716,864) VH: QVTLKESGPGILQPSQTLSLTCSFSGFSLSTYGIGVGWNRQPSGKGLEWLAHIWWNDNEYYNIDLKSRLTISKDTSNNQVFLKIASVDTADTATYYCVRGNYRYARGYVMDYWGQGTSVTVSS VL: DIVLTQSPASLAVSLGQRATISCRASESVEYYGTSLMQWYQQKPGQPPKLLIYAASNVESGVPARFSGSGSGTDFSLNIHPVEEDDFAMYFCQQNRKVPWTFGGGTKLEIKR
 | binds | binds | murine 10D10×MICA bispecific antibody (bispecific antibody, human IgG1, kappa, L234A L235A, First chain is the murine 10D10 ScFv-Fc (knob); the heavy and light chains are those of the MICA antibody (hole); knob-into-hole heterodimer; also called NKp46 (murine 10D10)×MICA bispecific antibody) not shown heavy: QVQLQESGPGLVKPSETLSLTCTVSGFSLTTYGVHWIRQPPGKGLEWIGMIWTDATTDYNAAFISRVTISVDTSKNQFSLKLSSVTAADTAVYYCARKGHGYYYAMDYWGQGTLVTVSSASTKGPSVFPLAPSSKSTSGGTAALGCLVKDYFPEPVTVSWNSGALTSGVHTFPAVLQSSGLYSLSSVVTVPSSSLGTQTYICNVNHKPSNTKVDKKVEPKSCDKTHTCPPCPAPEAAGGPSVFLFPPKPKDTLMISRTPEVTCVVVDVSHEDPEVKFNWYVDGVEVHNAKTKPREEQYNSTYRVVSVLTVLHQDWLNGKEYKCKVSNKALPAPIEKTISKAKGQPREPQVCTLPPSREEMTKNQVSLSCAVKGFYPSDIAVEWESNGQPENNYKTTPPVLDSDGSFFLVSKLTVDKSRWQQGNVFSCSVMHEALHNHYTQKSLSLSPGK light: EIVLTQSPGTLSLSPGERATLSCTASSSVSSSYLHWYQQKPGQAPRLLIYSTSNLASGIPDRFSGSGSGTDFTLTISRLEPEDFAVYYCHQYHRSPFTFGQGTKLEIKRTVAAPSVFIFPPSDEQLKSGTASVVCLLNNFYPREAKVQWKVDNALQSGNSQESVTEQDSKDSTYSLSSTLTLSKADYEKHKVYACEVTHQGLSSPVTKSFNRGEC
 | binds | binds | humanized 10D10×MICA bispecific antibody (bispecific antibody, human IgG1, kappa, L234A L235A, First chain is the humanized h10D10 ScFv-Fc (knob); the heavy and light chains are those of the MICA antibody (hole); also called h10D10×MICA; NKp46 (humanized 10D10)×MICA bispecific antibody) not shown heavy: QVQLQESGPGLVKPSETLSLTCTVSGFSLTTYGVHWIRQPPGKGLEWIGMIWTDATTDYNAAFISRVTISVDTSKNQFSLKLSSVTAADTAVYYCARKGHGYYYAMDYWGQGTLVTVSSASTKGPSVFPLAPSSKSTSGGTAALGCLVKDYFPEPVTVSWNSGALTSGVHTFPAVLQSSGLYSLSSVVTVPSSSLGTQTYICNVNHKPSNTKVDKKVEPKSCDKTHTCPPCPAPEAAGGPSVFLFPPKPKDTLMISRTPEVTCVVVDVSHEDPEVKFNWYVDGVEVHNAKTKPREEQYNSTYRVVSVLTVLHQDWLNGKEYKCKVSNKALPAPIEKTISKAKGQPREPQVCTLPPSREEMTKNQVSLSCAVKGFYPSDIAVEWESNGQPENNYKTTPPVLDSDGSFFLVSKLTVDKSRWQQGNVFSCSVMHEALHNHYTQKSLSLSPGK light: EIVLTQSPGTLSLSPGERATLSCTASSSVSSSYLHWYQQKPGQAPRLLIYSTSNLASGIPDRFSGSGSGTDFTLTISRLEPEDFAVYYCHQYHRSPFTFGQGTKLEIKRTVAAPSVFIFPPSDEQLKSGTASVVCLLNNFYPREAKVQWKVDNALQSGNSQESVTEQDSKDSTYSLSSTLTLSKADYEKHKVYACEVTHQGLSSPVTKSFNRGEC
